Data from patent US8889619B2 (Beijing Dongfang Biotech Co., Ltd., priority 2010, dated 2014).
Residue numbers refer to the chain shown, from its start.

How the values were obtained:
[1] = system: KK-Ay diabetic model mice; assay: Long-term administration experiment, KK-Ay diabetic model mice; assay type: in vivo, mouse; settings: 1 mg/Kg twice per week; for Relative bioactivity: fast blood glucose decrease vs blank control relative to fusion protein of example 2, after 2 weeks
Description: The drug is given twice per week, and the mice are fasted for 6 h each Wednesday and tested for fast blood glucose, meanwhile their food intake and weight variation are recorded. […] Specifically, long term administration is conducted according to the following protocol: the KK-Ay diabetic model mice are randomized into blank control group (injected only with PBS) and experimental group (injected with 1 mg/Kg of the fusion protein in Table 3). The drug is given twice per week; after 2 weeks, the mice are fasted for 6 h and tested for fasting blood glucose, and the blood glucose decrease of one experimental group is calculated by subtracting the fasting blood glucose of the experimental group from that of the blank control group.

[2] = system: db/db diabetic model mice; assay: Single injection hypoglycemic test, db/db mouse obesity diabetic model; assay type: in vivo; settings: 1 mg/Kg and 0.1 mg/Kg groups, single injection through caudal vein, 0-240 min
[3] = system: KK-Ay diabetic model mice; assay: Oral glucose tolerance test, KK-Ay diabetic model mice; assay type: in vivo, mouse; settings: 1 mg/Kg and 0.1 mg/Kg subcutaneously, glucose 1 mg/g by gastric tube 6 h later
human GLP-1 receptor [4] = target: T1, human GLP-1 receptor (Homo sapiens, UniProt P43220); assay: cAMP secretion test on human GLP-1 receptor CHO cell (CHO-hGLP1R); assay type: cell-based; settings: for cAMP concentration: 30 min incubation, CHO-hGLP1R
T1 construct: expressed in transfected cells; host or cells: CHO (CHO-hGLP1R)
T1 sequence (P43220 24-463): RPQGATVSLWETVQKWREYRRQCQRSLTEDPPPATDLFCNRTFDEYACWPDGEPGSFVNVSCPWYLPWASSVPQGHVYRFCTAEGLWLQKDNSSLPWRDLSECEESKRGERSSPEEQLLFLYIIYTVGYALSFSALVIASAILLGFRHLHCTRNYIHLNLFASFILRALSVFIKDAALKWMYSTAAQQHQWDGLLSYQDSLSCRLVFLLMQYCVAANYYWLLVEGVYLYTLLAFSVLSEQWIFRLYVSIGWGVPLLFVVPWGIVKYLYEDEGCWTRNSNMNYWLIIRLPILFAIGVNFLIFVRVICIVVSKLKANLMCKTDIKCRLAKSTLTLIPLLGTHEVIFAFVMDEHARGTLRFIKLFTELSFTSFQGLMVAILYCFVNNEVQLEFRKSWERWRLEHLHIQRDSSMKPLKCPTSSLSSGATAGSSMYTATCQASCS

[5] = system: KK-Ay diabetic model mice; assay: Single injection hypoglycemic test, KK-Ay mouse obesity diabetic model; assay type: in vivo; settings: 1 mg/Kg, single injection through caudal vein, 0-240 min, fasted 2 h
human GLP-1 receptor [6] = target: T1, human GLP-1 receptor; assay: Combining (binding) test with CHO engineering cell line expressing human GLP-1R, flow cytometry; settings: 4° C. 30 min
Description: After PBS washing, human immunoglobulin γ chain antibody labeled with fluorescein FITC is added, and incubate at 4° C. for 30 min. After PBS washing, 1% paraformaldehyde in PBS is added, mix thoroughly and load the sample, read the mean fluorescence intensity of sample of each concentration in selected zone in the flow cytometry.

## SEQ ID NO: 22: fusion protein: peptide hormone SEQ ID NO: 1 (Exendin-4), linker SEQ ID NO: 3, IgG4-Fc
[1]; fasted 6 h
  Relative bioactivity: 75%

B1: SEQ ID NO: 15: fusion protein: peptide hormone SEQ ID NO: 16 (differs from SEQ ID NO:2 in 3 sites), linker SEQ ID NO: 3, IgG2-Fc (protein)
chain: HTEGTFTSDASSYLEGQACKEFIAWLVKGRGGGGAGGGGVECPPCPAPPVAGPSVFLFPPKPKDTLMISRTPEVTCVVVDVSHEDPEVQFNWYVDGVEVHNAKTKPREEQFNSTFRVVSVLTVVHQDWLNGKEYKCKVSNKGLPAPIEKTISKTKGQPREPQVYTLPPSREEMTKNQVSLTCLVKGFYPSDIAVEWESNGQPENNYKTTPPMLDSDGSFFLYSKLTVDKSRWQQGNVFSCSVMHEALHNHYTQKSLSLSPGK
modifications: The sequence is synthesized
[1]; fasted 6 h
  Relative bioactivity: 94%

B2: SEQ ID NO: 21: fusion protein: peptide hormone SEQ ID NO: 2 (GLP-1 (7-36) NH2), linker SEQ ID NO: 3, IgG2-Fc (protein)
chain: B1 chain with T2A, A10V, C19A
modifications: The sequence is synthesized
[1]; fasted 6 h
  Relative bioactivity: 91%

B3: SEQ ID NO: 17: fusion protein: peptide hormone SEQ ID NO: 18 (differs from SEQ ID NO:2 in 3 sites), linker SEQ ID NO: 3, IgG2-Fc (protein)
chain: B1 chain with A10L, C19S
modifications: The sequence is synthesized
[1]; fasted 6 h
  Relative bioactivity: 93%

B4: SEQ ID NO: 19: fusion protein: peptide hormone SEQ ID NO: 20 (differs from SEQ ID NO:2 in 2 sites), linker SEQ ID NO: 3, IgG2-Fc (protein)
chain: B1 chain with T2A, A10L, C19I
modifications: The sequence is synthesized
[1]; fasted 6 h
  Relative bioactivity: 92%

B5: SEQ ID NO: 13: fusion protein: peptide hormone SEQ ID NO: 14 (GLP-1A8G), linker SEQ ID NO: 3, IgG2-Fc (protein)
chain: AAEGTFTGDVSSYLEGQAAKEFIAWLVKGRGGGGGAGGGGVECPPCPAPPVAGPSVFLFPPKPKDTLMISRTPEVTCVVVDVSHEDPEVQFNWYVDGVEVHNAKTKPREEQFNSTFRVVSVLTVVHQDWLNGKEYKCKVSNKGLPAPIEKTISKTKGQPREPQVYTLPPSREEMTKNQVSLTCLVKGFYPSDIAVEWESNGQPENNYKTTPPMLDSDGSFFLYSKLTVDKSRWQQGNVFSCSVMHEALHNHYTQKSLSLSPGK
modifications: The sequence is synthesized
[1]; fasted 6 h
  Relative bioactivity: 95%

B6: LAX09: Exendin-4 (SEQ ID NO: 1) fused via linker SEQ ID NO: 3 to Fc fragment of human IgG2; SEQ ID NO: 4 (protein)
chain: HGEGTFTSDLSKQMEEEAVRLFIEWLKDGGPSSGAPPPSGGGGAGGGGVECPPCPAPPVAGPSVFLFPPKPKDTLMISRTPEVTCVVVDVSHEDPEVQFNWYVDGVEVHNAKTKPREEQFNSTFRVVSVLTVVHQDWLNGKEYKCKVSNKGLPAPIEKTISKTKGQPREPQVYTLPPSREEMTKNQVSLTCLVKGFYPSDIAVEWESNGQPENNYKTTPPMLDSDGSFFLYSKLTVDKSRWQQGNVFSCSVMHEALHNHYTQKSLSLSPGK
modifications: The sequence is synthesized
[2]
  hypoglycemic effect (blood glucose): best hypoglycemic effect
[3]
  ability to maintain normal blood glucose (oral glucose tolerance): same good ability to maintain normal blood glucose
[1]
  food intake: decreases
  weight: significantly reduced
[1]; fasted 6 h, versus PBS group
  fast blood glucose: significantly different from that of PBS group
Human GLP-1 receptor [4]; cAMP in CHO-hGLP1R cells
  EC50: ~4.5 nM
Human GLP-1 receptor [4]; drug concentration 0.01 nM
  cAMP concentration: 2
Human GLP-1 receptor [4]; drug concentration 0.1 nM
  cAMP concentration: 5
Human GLP-1 receptor [4]; drug concentration 1 nM
  cAMP concentration: 31
Human GLP-1 receptor [4]; drug concentration 10 nM
  cAMP concentration: 115
Human GLP-1 receptor [4]; drug concentration 1000 nM
  cAMP concentration: 153
[5]
  blood glucose of the mouse: under 10 mmol/L
Human GLP-1 receptor [6]; LAX09 mass concentration 0.098 μg/mL
  Mean fluorescence intensity: 14.12
Human GLP-1 receptor [6]; LAX09 mass concentration 0.246 μg/mL
  Mean fluorescence intensity: 17.53
Human GLP-1 receptor [6]; LAX09 mass concentration 0.614 μg/mL
  Mean fluorescence intensity: 21.78
Human GLP-1 receptor [6]; LAX09 mass concentration 1.536 μg/mL
  Mean fluorescence intensity: 38.01
Human GLP-1 receptor [6]; LAX09 mass concentration 3.84 μg/mL
  Mean fluorescence intensity: 57.03
Human GLP-1 receptor [6]; LAX09 mass concentration 9.6 μg/mL
  Mean fluorescence intensity: 81.54
Human GLP-1 receptor [6]; LAX09 mass concentration 24 μg/mL
  Mean fluorescence intensity: 94.81
Human GLP-1 receptor [6]; LAX09 mass concentration 60 μg/mL
  Mean fluorescence intensity: 121.98

B7: SEQ ID NO: 7: fusion protein: peptide hormone SEQ ID NO: 8 (differs from SEQ ID NO:1 in 3 sites), linker SEQ ID NO: 3, IgG2-Fc (protein)
chain: B6 chain with G2T, L10A, K12L
modifications: The sequence is synthesized
[1]; fasted 6 h
  Relative bioactivity: 98%

B8: SEQ ID NO: 9: fusion protein: peptide hormone SEQ ID NO: 10 (differs from SEQ ID NO:1 in 4 sites), linker SEQ ID NO: 3, IgG2-Fc (protein)
chain: B6 chain with G2A, L10A, K12L, Q13T
modifications: The sequence is synthesized
[1]; fasted 6 h
  Relative bioactivity: 97%

B9: SEQ ID NO: 5: fusion protein: peptide hormone SEQ ID NO: 6 (differs from SEQ ID NO:1 in 2 sites), linker SEQ ID NO: 3, IgG2-Fc (protein)
chain: B6 chain with G2T, L10A
modifications: The sequence is synthesized
[1]; fasted 6 h
  Relative bioactivity: 99%

B10: SEQ ID NO: 11: fusion protein: peptide hormone SEQ ID NO: 12 (differs from SEQ ID NO:1 in 6 sites), linker SEQ ID NO: 3, IgG2-Fc (protein)
chain: B6 chain with G2A, L10A, K12L, Q13T, M14Y, V19C
modifications: The sequence is synthesized
[1]; fasted 6 h
  Relative bioactivity: 96%
